Results: article PMC8363748, “The conformational stability of pro-apoptotic BAX is dictated by discrete residues of the protein core” (Nature Communications, 2021)

B1: N-His6-GFP-BAX α2–α5 (53–128), C62S/C126S (domain or fragment, human, UniProt Q07812 53-128, looked up)
chain: DASTKKLSESLKRIGDELDSNMELQRMIAAVDTDSPREVFFRVAADMFSDGNFNWGRVVALFYFASKLVLKALSTK
notes: BAX α2–α5 truncate, residues 53–128, human; also called BAX α2–α5 WT; wild-type BAX α2–α5; source: E. coli, purified (Ni-NTA, SEC Superdex S-200); not shown: His6, N-terminal, kept; GFP, N-terminal, kept
B2: GFP-BAX α2–α5 F114A/Y115A/F116A (domain or fragment, human, UniProt Q07812 53-128, looked up)
chain: DASTKKLSESLKRIGDELDSNMELQRMIAAVDTDSPREVFFRVAADMFSDGNFNWGRVVALAAAASKLVLKALSTK
notes: BAX α2–α5 truncate, residues 53–128, human; also called triple alanine mutant F114A/Y115A/F116A; source: E. coli, purified (Ni-NTA, SEC Superdex S-200); not shown: His6, N-terminal, kept; GFP, N-terminal, kept
B3: GFP-BAX α2–α5 F114A/Y115A (domain or fragment, human, UniProt Q07812 53-128, looked up)
chain: DASTKKLSESLKRIGDELDSNMELQRMIAAVDTDSPREVFFRVAADMFSDGNFNWGRVVALAAFASKLVLKALSTK
notes: BAX α2–α5 truncate, residues 53–128, human; also called double alanine mutant; source: E. coli, purified (Ni-NTA, SEC Superdex S-200); not shown: His6, N-terminal, kept; GFP, N-terminal, kept
B4: GFP-BAX α2–α5 Y115A/F116A (domain or fragment, human, UniProt Q07812 53-128, looked up)
chain: DASTKKLSESLKRIGDELDSNMELQRMIAAVDTDSPREVFFRVAADMFSDGNFNWGRVVALFAAASKLVLKALSTK
notes: as for B3
B5: GFP-BAX α2–α5 L113A/F114A (domain or fragment, human, UniProt Q07812 53-128, looked up)
chain: DASTKKLSESLKRIGDELDSNMELQRMIAAVDTDSPREVFFRVAADMFSDGNFNWGRVVAAAYFASKLVLKALSTK
notes: as for B3
B6: GFP-BAX α2–α5 L113A/F116A (domain or fragment, human, UniProt Q07812 53-128, looked up)
chain: DASTKKLSESLKRIGDELDSNMELQRMIAAVDTDSPREVFFRVAADMFSDGNFNWGRVVAAFYAASKLVLKALSTK
notes: as for B3
B7: GFP-BAX α2–α5 Y115A (domain or fragment, human, UniProt Q07812 53-128, looked up)
chain: DASTKKLSESLKRIGDELDSNMELQRMIAAVDTDSPREVFFRVAADMFSDGNFNWGRVVALFAFASKLVLKALSTK
notes: BAX α2–α5 truncate, residues 53–128, human; source: E. coli, purified (Ni-NTA, SEC Superdex S-200); not shown: His6, N-terminal, kept; GFP, N-terminal, kept
B8: GFP-BAX α2–α5 L113A/Y115A/F116A (domain or fragment, human, UniProt Q07812 53-128, looked up)
chain: DASTKKLSESLKRIGDELDSNMELQRMIAAVDTDSPREVFFRVAADMFSDGNFNWGRVVAAFAAASKLVLKALSTK
notes: BAX α2–α5 truncate, residues 53–128, human; also called triple alanine mutant L113A/Y115A/F116A; source: E. coli, purified (Ni-NTA, SEC Superdex S-200); not shown: His6, N-terminal, kept; GFP, N-terminal, kept
B9: GFP-BAX α2–α5 L113A/Y115A (domain or fragment, human, UniProt Q07812 53-128, looked up)
chain: DASTKKLSESLKRIGDELDSNMELQRMIAAVDTDSPREVFFRVAADMFSDGNFNWGRVVAAFAFASKLVLKALSTK
notes: as for B3
B10: GFP-BAX α2–α5 F116A (domain or fragment, human, UniProt Q07812 53-128, looked up)
chain: DASTKKLSESLKRIGDELDSNMELQRMIAAVDTDSPREVFFRVAADMFSDGNFNWGRVVALFYAASKLVLKALSTK
notes: as for B7
B11: GFP-BAX α2–α5 F114A/F116A (domain or fragment, human, UniProt Q07812 53-128, looked up)
chain: DASTKKLSESLKRIGDELDSNMELQRMIAAVDTDSPREVFFRVAADMFSDGNFNWGRVVALAYAASKLVLKALSTK
notes: as for B3
B12: GFP-BAX α2–α5 L113A/F114A/Y115A (domain or fragment, human, UniProt Q07812 53-128, looked up)
chain: DASTKKLSESLKRIGDELDSNMELQRMIAAVDTDSPREVFFRVAADMFSDGNFNWGRVVAAAAFASKLVLKALSTK
notes: BAX α2–α5 truncate, residues 53–128, human; also called triple BAX α2–α5 mutant L113A/F114A/Y115A; source: E. coli, purified (Ni-NTA, SEC Superdex S-200); not shown: His6, N-terminal, kept; GFP, N-terminal, kept
B13: GFP-BAX α2–α5 L113A/F114A/F116A (domain or fragment, human, UniProt Q07812 53-128, looked up)
chain: DASTKKLSESLKRIGDELDSNMELQRMIAAVDTDSPREVFFRVAADMFSDGNFNWGRVVAAAYAASKLVLKALSTK
notes: BAX α2–α5 truncate, residues 53–128, human; also called triple BAX α2–α5 mutant L113A/F114A/F116A; source: E. coli, purified (Ni-NTA, SEC Superdex S-200); not shown: His6, N-terminal, kept; GFP, N-terminal, kept
B14: GFP-BAX α2–α5 L113A (domain or fragment, human, UniProt Q07812 53-128, looked up)
chain: DASTKKLSESLKRIGDELDSNMELQRMIAAVDTDSPREVFFRVAADMFSDGNFNWGRVVAAFYFASKLVLKALSTK
notes: as for B7
B15: GFP-BAX α2–α5 F114A (domain or fragment, human, UniProt Q07812 53-128, looked up)
chain: DASTKKLSESLKRIGDELDSNMELQRMIAAVDTDSPREVFFRVAADMFSDGNFNWGRVVALAYFASKLVLKALSTK
notes: as for B7

Biological target: the molecule itself
Assay: SEC; N-His6-GFP-BAX α2–α5 proteins, Superdex S-200, TBS; the dimer is observed as a GFP-mediated dimer/oligomer of dimers

Binding result, binds:
B1, B2, B3, B4, B5, B6, B7, B8, B9, B10, B11, B12, B13, B14, B15
